For 72 molecules, Binding affinity (RU) and Binding affinity results are on record in US20250011363A1, “OPTIMIZED SHORTENED PEPTIDE THAT BINDS TO ACETYLCHOLINE RECEPTOR, AND USE THEREOF” (SKINMED CO., LTD., priority 2021, published 2025).

This test has as its target acetylcholine receptor. Description: SPR, receptor immobilized, peptide 10 uM. A general note: In SPR one partner is held on a chip, and binding of the other changes the refractive index at the surface.

The molecule RPTMKR [6mer-2-821] gave a Binding affinity (RU) of 33 RU.

Take REPWRR [6mer-2-809]: the Binding affinity (RU) turned out to be 18 RU. In the case of KWVSRR [6mer-2-184], the Binding affinity came out at 136 RU. As for RMKFKR [6mer-2-830], the Binding affinity (RU) turned out to be 21 RU. As to KHAKKK [6mer-2-810], the Binding affinity (RU) came out at 18 RU.

The molecule RLQLRR [6mer-2-183] displayed a Binding affinity of 154 RU. On to RFWWKR [6mer-2-834], for which the Binding affinity (RU) came to 28 RU. The molecule KAMKRK [6mer-2-811] showed a Binding affinity (RU) of 16 RU. As to RGQYKR [6mer-2-199], the Binding affinity was found to be 137 RU.

Regarding RGQYRR [6mer-2-197], the Binding affinity came out at 126 RU. For RTAWKK [6mer-2-800], the Binding affinity (RU) was determined as 11 RU. In turn, KVYLRK [6mer-2-175] yielded a Binding affinity of 137 RU. On the same count and under the same terms, then RWQQKK [6mer-2-181], with 139 RU. In the case of KYHNRR [6mer-2-832], the Binding affinity (RU) amounted to 32 RU. The same measure, in the same setting: the figure for RKTWRR [6mer-2-833] is 14 RU. As for RGVQRK [6mer-2-200], the Binding affinity was found to be 121 RU. As to RNKERK [6mer-2-803], the Binding affinity (RU) was determined as 18 RU.

RQQTRR [6mer-2-171] returned a Binding affinity of 139 RU. Still for that read-out and setting: then RWFSKK [6mer-2-192], with 133 RU; and KVYLKR [6mer-2-190], with 148 RU. Molecule KQICRK [6mer-2-186] showed a Binding affinity of 127 RU. On the same count and under the same terms, then KSRQKR [6mer-2-195], with 154 RU. The molecule KIHARK [6mer-2-825] registered a Binding affinity (RU) of 11 RU. On to RWIYRR [6mer-2-176], for which the Binding affinity amounted to 144 RU. Regarding KLLRKR [6mer-2-174], the Binding affinity worked out at 142 RU.

For the molecule RMKKKR [6mer-2-828], the Binding affinity (RU) is 32 RU. Still for that read-out and setting: the figure for RHCGKR [6mer-2-835] is 20 RU; for KNTMKR [6mer-2-836] it is 26 RU.

For RCTAKK [6mer-2-822], the Binding affinity (RU) was 13 RU.

Turning to RYMERK [6mer-2-814], the Binding affinity (RU) came to 28 RU. Same read-out and setting: then KKMDRR [6mer-2-813], with 29 RU. With KVIRKK [6mer-2-172], the Binding affinity is 128 RU. In turn, KHCVRK [6mer-2-806] returned a Binding affinity (RU) of 30 RU. With RLRLKR [6mer-2-180], the Binding affinity worked out at 142 RU. In the case of KKKIRR [6mer-2-829], the Binding affinity (RU) was 22 RU. On the same count and under the same terms, then RPNNKK [6mer-2-820], with 24 RU.

In turn, KLFYKK [6mer-2-182] showed a Binding affinity of 139 RU. Still for that read-out and setting: then RVFLKR [6mer-2-168], with 135 RU; and KWISKR [6mer-2-193], with 127 RU. As for KCNDKK [6mer-2-817], the Binding affinity (RU) turned out to be 22 RU. Same read-out and setting: the figure for RNCGKR [6mer-2-804] is 21 RU; for REDWRK [6mer-2-823] it is 25 RU; for KPPEKR [6mer-2-812] it is 33 RU.

With KWYYRK [6mer-2-198], the Binding affinity turned out to be 139 RU. KIWNRK [6mer-2-807] showed a Binding affinity (RU) of 28 RU. With RSVTKK [6mer-2-177], the Binding affinity came to 136 RU. On the same count and under the same terms, the figure for RQLLKR [6mer-2-191] is 154 RU; for RWQCKK [6mer-2-189] it is 121 RU.

Molecule RPNIRK [6mer-2-801] returned a Binding affinity (RU) of 24 RU. In turn, KRQSRR [6mer-2-169] returned a Binding affinity of 123 RU. The same measure, in the same setting: the figure for KLRLRK [6mer-2-194] is 154 RU; for KRRRRK [6mer-2-187] it is 145 RU. Still for that read-out and setting: then RRVYRR [6mer-2-179], with 121 RU. With KFSVRR [6mer-2-819], the Binding affinity (RU) was determined as 23 RU. Molecule RKKFKK [6mer-2-808] had a Binding affinity (RU) of 21 RU.

KCSAKK [6mer-2-799] had a Binding affinity (RU) of 13 RU. The same measure, in the same setting: the figure for RNTPRK [6mer-2-826] is 11 RU; for KTPERK [6mer-2-818] it is 13 RU. Regarding KSQRKK [6mer-2-196], the Binding affinity was found to be 121 RU. RITNKR [6mer-2-824] registered a Binding affinity (RU) of 26 RU. Still for that read-out and setting: the figure for RMTWRK [6mer-2-831] is 29 RU; for RDTMKK [6mer-2-805] it is 12 RU. The molecule RGYQKR [6mer-2-185] gave a Binding affinity of 137 RU. On the same count and under the same terms, then KWLLRR [6mer-2-178], with 133 RU. In turn, KYAEKK [6mer-2-827] yielded a Binding affinity (RU) of 13 RU. RGYTKR [6mer-2-188] displayed a Binding affinity of 142 RU. Same read-out and setting: then KLFLRR [6mer-2-201], with 148 RU; and RQYQKK [6mer-2-170], with 128 RU.

Regarding RKMGKR [6mer-2-816], the Binding affinity (RU) turned out to be 15 RU.

KICGRK [6mer-2-815] registered a Binding affinity (RU) of 30 RU. For the molecule RQQCKK [6mer-2-173], the Binding affinity is 127 RU. The molecule KETKRR [6mer-2-802] had a Binding affinity (RU) of 24 RU.
